B1: C1orf55 (parent)
chain: FTSPDYQQQCHEMAERLEDSVLKG
B2: RTP4 (parent)
chain: TYWEHWTSQGQVRMRLFGQRCQKC

Variants of: B1
Assay: protein stability index of a GFP-peptide fusion (GPS, HEK-293T) (PSI 1-6); higher = more stable
Settings: c terminus: a fixed tail appended
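Also: lentivirally expressed fusions sorted by FACS into six bins by GFP to DsRed ratio, PSI derived from sequencing read proportions per bin multiplied by bin number.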

Protein stability index of substitutions, site by site:
G24: C 2.52; F 2.01; P 2; T 2.26; E 2.74; W 1.78; H 1.52; A 1.98; I 1.5; N 2.15; R 1.87; Q 2; L 1.87; M 2.44; K 2.49; Y 1.8; V 1.72; D 1.91; S 1.89
L17: Y 2.22; N 2.23; F 2.01; Q 2.34; W 1.98; M 1.92; E 2.97; V 2.35; I 2.12; H 2.52; T 2.9; P 2.66; K 1.97; S 2.47; C 2.25; A 2.86; G 2.54; D 3.18; R 2.72
A14: W 2.1; T 2.07; R 2.27; N 2.75; H 2.39; Q 2.45; D 2.86; I 2.45; K 2.52; Y 1.92; V 2; M 2.27; F 2.21; E 2.63; L 2.26; S 2; C 2.06; P 2.48; G 2.48
Q7: P 2.27; R 1.85; V 2.02; Y 3.06; L 2.13; I 1.81; T 2.02; N 3.16; M 2.01; K 2.07; S 2.24
S20: A 1.95; P 2.12; M 2.06; H 1.75; Y 1.91; V 2.7; R 2.47; K 1.75; G 1.72; L 2.93; Q 2.9; C 2.4; F 1.85; W 2.08; E 2.67; I 2.26; N 1.55; T 2.08; D 2.3
L22: C 2.62; N 2.93; V 2.75; Q 2.79; E 2.1; R 2.71; H 2.05; M 2.35; W 2.21; T 2.22; K 2.12; A 2.42; F 1.9; I 2.36; P 2.97; G 2.57; D 2.48; S 2.76; Y 2.26
K23: T 2.13; R 2.57; L 2.37; A 1.4; G 2.38; W 2.39; F 1.5; H 1.89; V 3.3; S 2.24; M 2.02; P 2.35; Q 2.23; D 2.57; E 2.35; Y 1.99; I 2.1; N 2.6; C 1.79
Q9: C 1.84; W 2.98; T 1.38; E 3.26; G 1.92; D 3.87; R 1.28; N 1.52; Y 2.09; L 1.7; V 2.21; A 1.95; M 2.08; H 1.85; S 1.94; I 1.29; P 2.59; F 2.12; K 1.92
C10: V 2.29; R 3.69; F 2.14; H 2.74; L 2.55; A 3.17; G 3.29; S 2.87; W 2.05; T 2.26; D 4.68; E 4.53; P 3.87; N 3.37; K 3.46; Y 3.3; M 2.41; Q 3.47; I 2.59
M13: R 2.09; S 2.53; W 2.02; N 2.66; L 2.25; P 2.83; K 2.79; A 2.03; G 2.56; Q 2.24; E 2.62; C 1.97; D 2.55; T 2.1; V 1.91; Y 1.93; I 1.97; H 2.27; F 1.85
V21: S 2.56; K 2.99; M 1.9; F 2.01; A 3.08; G 2.09; W 1.68; D 2.34; C 2.12; R 2.33; H 2.41; I 2.55; T 2.65; P 2.73; N 2.94; Y 2.06; L 2.17; E 2.87; Q 2.21
E12: Q 2.23; N 1.7; G 2.13; C 1.93; Y 2.35; A 2.79; I 2.98; R 1.87; V 1.88; W 1.85; H 2.36; K 1.32; S 1.73; D 2.56; P 1.5; L 2.7; T 1.47; F 3.35; M 1.89
R16: M 2.44; W 1.9; T 2.38; P 2.56; Y 2.04; S 2.21; I 2.94; E 2.45; L 1.77; N 2.52; V 2.45; Q 2.4; K 1.93; C 2.31; F 2.29; H 2.33; G 2.49; D 2.85; A 2.08
D19: V 2.03; Q 2.04; Y 1.91; A 1.83; P 1.98; K 1.35; I 2.86; F 1.79; S 2.87; W 2.23; R 1.65; N 2.37; H 2.32; G 1.77; M 2.08; T 1.76; C 2.04; L 1.91; E 2.04
E15: T 2.62; A 2.8; K 1.59; W 1.11; V 2.42; I 1.86; R 2.04; C 1.96; F 1.78; M 1.8; P 2.33; Y 1.22; G 2.25; L 1.57; H 2.34; S 2.04; N 1.36; Q 1.67; D 1.82
E18: F 1.65; H 1.74; R 2.36; V 1.4; G 2.23; C 1.99; N 1.44; M 1.97; L 1.76; P 1.78; W 1.55; D 1.9; S 2.06; A 1.96; Q 2.05; K 1.74; T 1.4; Y 1.79; I 1.52
Q8: M 1.59; W 2.04; P 4.29; R 1.72; L 1.68; V 2.47; F 2.44; S 2.18; T 2.6; I 1.63; D 3.9; N 2.62; K 2; C 1.64; G 2.81; A 1.96; Y 1.99; H 2.35; E 3.44
H11: T 2.1; C 1.8; E 2.95; I 2.61; M 2.33; F 2.26; P 2.66; G 2.35; Q 2.87; K 2.1; N 2.13; R 2.45; Y 1.87; D 2.83; V 2.52; L 1.87; A 2.83; S 2.13

Variants of: B2
Assay: as above
Settings: c terminus: a fixed tail appended

Protein stability index: each site, then its substitutions
T1: A 1.19
